In one assay the target is T1, (EAR)3 peptide.
T1 construct: Synthetic substrate peptide coated on the ELISA plate
T1 peptide: EAREAREAR
The assay is described as follows: ELISA, (EAR)3 peptide coated, antibody at 100 µg/mL. (In general: In an ELISA, binding on a coated surface is turned into a signal by an enzyme label.)

The target in assay [1] is T2, Aβ (1-42) peptide (UniProt P05067 672-713).
T2 construct: domain: Aβ (1-42) peptide; also called Aβ42
The assay is described as follows: ELISA, Aβ(1-42) coated.
Description: (§1) Briefly, an ELISA plate was coated with an Aβ (1-42) peptide at 1 μg/mL in a coating buffer (0.2M sodium carbonate-bicarbonate buffer, pH 9.4), 100 μL/well at 4° C. overnight. The Aβ peptide was removed and the plate was washed three times with 250 μL/well of a washing buffer (PBST). The plate was then blocked with 200 μL/well of a blocking buffer (1% BSA in PBST) for 1 hour at room temperature, and washed two times with 250 μL/well of the washing buffer. To each well of the plate was added 100 μL of the antibody sample (3× serial dilution in the range of 3 ng/mL to 20 μg/mL) and incubated at room temperature for 1 hour. […] The plate was then washed three times with 250 μL/well of the washing buffer. HRP substrate (Amplex Red and H₂O₂) was prepared freshly with a developing buffer (3.6 mM Na₂HPO₄, 1.4 mM NaH₂PO₄, at pH7.2), and 100 μL of the HRP substrate was added to each well and incubated for 1-60 minutes. Signals were subsequently detected using a plate reader (Excitation wavelength=530 nm, Emission wavelength=590 nm, and cutoff wavelength =570 nm).

Assay [2] deals with T2, Aβ (1-42) peptide. The experiment in a line: ELISA, Aβ(1-42) coated at 1 µg/mL, antibody titrated 3 ng/mL to 20 µg/mL.
Description: as §1

T2 sequence (P05067 672-713 limits assumed): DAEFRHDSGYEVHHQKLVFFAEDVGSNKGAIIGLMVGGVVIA

B1: 3D6-D (antibody, V domains shown)
VH: EVKLVESGGGLVKPGASLKLSCAASGFTFSNYGMSWVRQNSDKRLEWVASIRSGGGRTYYSDNVKGRFTISRENAKNTLYLQMSSLKSEDTALYYCVRYDHYSGSSDYWGQGTTVTVSS
VL: not shown
notes: It was detected with anti-human IgG; also called 3D6-D antibody; 3D6-D catabody
For B1, the binding result in the assay with (EAR)3 peptide is “binds”.

B2: 3D6 (antibody, V domains shown)
VH: EVKLVESGGGLVKPGASLKLSCAASGFTFSNYGMSWVRQNSDKRLEWVASIRSGGGRTYYSDNVKGRFTISRENAKNTLYLQMSSLKSEDTALYYCVRYDHYSGSSDYWGQGTTVTVSS
VL: not shown
notes: Non-catalytic anti-Aβ antibody, the parental murine antibody of bapineuzumab; An IgG1 isotype control and anti-human IgG detection were used; also called 3D6-Y; wild type 3D6 antibody
B2: in the assay with (EAR)3 peptide, the binding result is reported as “binds”.

B3: hu3D6-D H1L1 (antibody, V domains shown)
VH: EVQLVESGGGLVQPGGSLRLSCAASGFTFSNYGMSWVRQAPDKRLEWVASIRSGGGRTYYSDNVKGRFTISRDNAKNTLYLQMNSLRAEDTALYYCVRYDHYSGSSDYWGQGTLVTVSS
VL: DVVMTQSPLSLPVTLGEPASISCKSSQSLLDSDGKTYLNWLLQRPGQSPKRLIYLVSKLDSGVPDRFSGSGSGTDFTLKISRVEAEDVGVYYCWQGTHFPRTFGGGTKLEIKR
notes: It was detected with goat anti-human IgG; also called hu3D6-D HIL1; humanized 3D6-D catabody
Consider B3, for which, in the assay with Aβ (1-42) peptide [1], the binding result was “binds”.

B4: bapineuzumab (antibody, V domains shown)
VH: EVQLLESGGGLVQPGGSLRLSCAASGFTFSNYGMSWVRQAPGKGLEWVASIRSGGGRTYYSDNVKGRFTISRDNAKNSLYLQMNSLRAEDTALYYCVRYDHYSGSSDYWGQGTLVTVSS
VL: YVVMTQSPLSLPVTPGEPASISCKSSQSLLDSDGKTYLNWLLQKPGQSPQRLIYLVSKLDSGVPDRFSGSGSGTDFTLKISRVEAEDVGVYYCWQGTHFPRTFGQGTKVEIKR
notes: also called humanized 3D6-Y; hu3D6-Y
Regarding B4, the binding result in the assay with Aβ (1-42) peptide [2] was “binds”.

B5: hu3D6-D H1L2 (antibody, V domains shown)
VH: EVQLVESGGGLVQPGGSLRLSCAASGFTFSNYGMSWVRQAPDKRLEWVASIRSGGGRTYYSDNVKGRFTISRDNAKNTLYLQMNSLRAEDTALYYCVRYDHYSGSSDYWGQGTLVTVSS
VL: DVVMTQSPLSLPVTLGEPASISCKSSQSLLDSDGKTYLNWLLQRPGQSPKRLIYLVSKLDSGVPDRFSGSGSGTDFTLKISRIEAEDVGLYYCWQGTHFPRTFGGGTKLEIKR
notes: It was detected with goat anti-human IgG; also called hu3D6-D HIL2; hu3D6-D HISL2
On to B5, for which the binding result with Aβ (1-42) peptide [1] is “binds”.

The values are drawn from patent US20210190796A1 (AB STUDIO, published 2021).
